What was measured:
[1] = target: T1, mouse GPR37 (native, on peritoneal macrophages and in tissues of wild-type mice) (mouse, UniProt Q9QY42 27-600); assay: cell-based or functional assay
T1 sequence (looked up): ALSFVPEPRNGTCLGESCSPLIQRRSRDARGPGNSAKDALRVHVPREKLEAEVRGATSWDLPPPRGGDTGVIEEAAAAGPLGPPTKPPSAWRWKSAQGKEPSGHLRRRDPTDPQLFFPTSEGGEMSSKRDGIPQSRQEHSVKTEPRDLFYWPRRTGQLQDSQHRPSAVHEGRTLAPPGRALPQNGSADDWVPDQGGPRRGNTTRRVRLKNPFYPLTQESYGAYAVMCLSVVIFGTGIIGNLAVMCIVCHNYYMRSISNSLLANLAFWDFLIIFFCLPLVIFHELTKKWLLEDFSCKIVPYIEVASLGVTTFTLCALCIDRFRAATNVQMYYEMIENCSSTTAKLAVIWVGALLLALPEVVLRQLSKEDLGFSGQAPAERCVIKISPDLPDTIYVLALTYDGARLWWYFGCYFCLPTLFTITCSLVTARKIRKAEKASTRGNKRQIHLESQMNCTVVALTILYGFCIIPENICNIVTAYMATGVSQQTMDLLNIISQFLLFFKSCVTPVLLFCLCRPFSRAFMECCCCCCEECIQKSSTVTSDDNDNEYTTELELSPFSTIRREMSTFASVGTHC

[2] = target: T2, human GPR37 (hGPR37-V5, expressed in transfected HEK293 cells) (human, UniProt O15354 27-613); assay: cell-based or functional assay
T2 sequence: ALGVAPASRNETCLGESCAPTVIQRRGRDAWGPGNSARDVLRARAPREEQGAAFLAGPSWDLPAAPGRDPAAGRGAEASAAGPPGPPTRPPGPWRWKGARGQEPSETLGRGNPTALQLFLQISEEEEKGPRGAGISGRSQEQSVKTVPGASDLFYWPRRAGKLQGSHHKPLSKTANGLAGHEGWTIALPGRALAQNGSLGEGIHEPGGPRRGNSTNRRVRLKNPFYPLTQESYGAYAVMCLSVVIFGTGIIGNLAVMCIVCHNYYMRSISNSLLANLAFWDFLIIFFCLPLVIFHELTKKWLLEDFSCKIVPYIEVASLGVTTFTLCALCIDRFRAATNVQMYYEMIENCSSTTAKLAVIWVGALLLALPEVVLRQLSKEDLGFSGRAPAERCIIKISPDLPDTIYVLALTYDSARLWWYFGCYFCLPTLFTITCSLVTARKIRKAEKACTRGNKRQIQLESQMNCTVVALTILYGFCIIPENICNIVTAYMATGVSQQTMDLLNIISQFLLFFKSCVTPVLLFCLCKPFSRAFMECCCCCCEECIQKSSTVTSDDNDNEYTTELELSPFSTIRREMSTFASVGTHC

B1: prosaposin-derived 14-mer peptide (TX14) (peptide)
peptide: TALIDNNATEEILY
Question: With B1 as the binder, how does the “EC50 of iCa^2+ increase in mouse peritoneal macrophages (Fluo-4AM calcium imaging)” value [1] read?
Answer: The value was 0.302 µM.

Question: What about the “EC50 of iCa^2+ increase in HEK293 cells transfected with human GPR37 (Fura-2AM calcium imaging)” value [2] of the same binder?
Answer: Its value is 0.407 µM.
